Test results as given in publication PMC8034618.

System: LARP1 C-terminal fragment (extended DM15) WT (Homo sapiens)
Experiment: EMSA
Conditions: m7Gppp cap; EMSA: 20 mM Tris-HCl pH 8, 150 mM NaCl, 10% glycerol, 1 mM DTT, 0.5 ug tRNA, 1 ug BSA in 10 ul; on ice 30 min; 7-8% native 0.5x TBE gel at 4 C; RNA <=200 pM

m7G-RPS6-UTR (capped RPS6 20-mer)
Kd: 153 nM
